Reference: PMC5493754, “Myosin 7 and its adaptors link cadherins to actin” (Nature Communications, 2017)
Each block holds one binder with its values, some of them ahead of it.

B1: Harmonin-a PDZ2-end (domain or fragment, human, UniProt Q9Y6N9-1 194-552, looked up)
chain: GVRGSLGSPGNRENKEKKVFISLVGSRGLGCSISSGPIQKPGIFISHVKPGSLSAEVGLEIGDQIVEVNGVDFSNLDHKEAVNVLKSSRSLTISIVAAAGRELFMTDRERLAEARQRELQRQELLMQKRLAMESNKILQEQQEMERQRRKEIAQKAAEENERYRKEMEQIVEEEEKFKKQWEEDWGSKEQLLLPKTITAEVHPVPLRKPKYDQGVEPELEPADDLDGGTEEQGEQDFRKYEEGFDPYSMFTPEQIMGKDVRLLRIKKEGSLDLALEGGVDSPIGKVVVSAVYERGAAERHGGIVKGDEIMAINGKIVTDYTLAEAEAALQKAWNQGGDWIDLVVAVCPPKEYDDELTFF
notes: Harmonin-a1 (USH1C), human, residues 194-552 of UniProt Q9Y6N9-1; also called PDZ2-end (isoA); source: E. coli BL21 (DE3) Rosetta, purified (Glutathione Sepharose 4B, size-exclusion chromatography)

Experiments:
Settings in all cases: both partners purified
YFP-FL-harmonin-ΔCter = biological target: T1, YFP-FL-harmonin-ΔCter (human, UniProt Q9Y6N9-1 1-542); test: MST; as a1 but 150 mM NaCl (for FL-Harmonin-a); YFP-fused partner constant at 100 nM, non-fluorescent protein titrated
T1 construct: Harmonin-a1 (USH1C), human, residues 1-542 of UniProt Q9Y6N9-1; also called ^YFPFL ΔCter; source: E. coli BL21 (DE3) Rosetta, purified (Glutathione Sepharose 4B, size-exclusion chromatography)
T1 sequence (looked up): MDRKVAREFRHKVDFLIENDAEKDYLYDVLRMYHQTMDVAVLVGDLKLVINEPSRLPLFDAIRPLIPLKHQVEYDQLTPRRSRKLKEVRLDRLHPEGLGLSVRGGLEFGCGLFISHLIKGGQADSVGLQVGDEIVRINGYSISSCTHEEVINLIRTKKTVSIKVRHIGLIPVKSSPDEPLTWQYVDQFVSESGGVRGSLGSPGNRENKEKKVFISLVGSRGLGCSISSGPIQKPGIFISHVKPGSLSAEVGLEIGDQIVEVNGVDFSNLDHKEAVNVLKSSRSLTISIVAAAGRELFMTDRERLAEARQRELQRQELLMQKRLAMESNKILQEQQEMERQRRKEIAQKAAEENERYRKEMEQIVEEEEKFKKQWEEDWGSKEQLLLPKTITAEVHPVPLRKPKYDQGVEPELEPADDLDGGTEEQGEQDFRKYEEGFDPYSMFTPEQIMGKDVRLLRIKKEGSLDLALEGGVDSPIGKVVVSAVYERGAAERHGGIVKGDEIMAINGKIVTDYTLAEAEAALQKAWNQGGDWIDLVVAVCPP

YFP-Myosin 7a MF2 = biological target: T2, YFP-Myosin 7a MF2 (human, UniProt Q13402-1 1702-2215); test: MST; YFP-fused partner constant at 100 nM, non-fluorescent protein titrated (16 two-fold dilutions); 20 mM Hepes pH 7.0, 100 mM NaCl, 1 mM EGTA, 0.5 mM TCEP, 0.05% Tween 20; Monolith NT.115
T2 construct: Myosin 7a, human, MF2, residues 1702-2215 of UniProt Q13402-1; pET14-YFP vector; also called ^YFPM7a MF2; source: E. coli (BL21-AI, BL21 (DE3) Rosetta or BL21-Gold (DE3)), purified (Histrap, CaptoQ, gel filtration)
T2 sequence (looked up): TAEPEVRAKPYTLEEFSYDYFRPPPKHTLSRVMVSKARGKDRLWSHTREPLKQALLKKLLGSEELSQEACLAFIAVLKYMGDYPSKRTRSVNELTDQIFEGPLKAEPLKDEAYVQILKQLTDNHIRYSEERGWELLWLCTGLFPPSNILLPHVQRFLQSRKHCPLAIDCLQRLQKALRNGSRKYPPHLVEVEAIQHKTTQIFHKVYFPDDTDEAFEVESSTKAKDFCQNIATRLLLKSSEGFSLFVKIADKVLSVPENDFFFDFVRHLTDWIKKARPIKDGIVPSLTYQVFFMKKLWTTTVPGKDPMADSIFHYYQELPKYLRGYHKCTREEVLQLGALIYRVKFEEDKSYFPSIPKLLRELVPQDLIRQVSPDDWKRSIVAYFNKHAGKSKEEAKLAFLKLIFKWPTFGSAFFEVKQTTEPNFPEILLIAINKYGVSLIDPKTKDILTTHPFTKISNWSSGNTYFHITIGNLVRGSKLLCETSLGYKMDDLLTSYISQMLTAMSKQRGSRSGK

YFP-Myosin 7b MF2 [1] = biological target: T3, YFP-Myosin 7b MF2 (human, UniProt Q6PIF6 1605-2116); test: as above
T3 construct: Myosin 7b, human, MF2, residues 1605-2116 of UniProt Q6PIF6; pET14-YFP vector; also called ^YFPM7b MF2; source: E. coli (BL21-AI, BL21 (DE3) Rosetta or BL21-Gold (DE3)), purified (Histrap, CaptoQ, gel filtration)
T3 sequence (looked up): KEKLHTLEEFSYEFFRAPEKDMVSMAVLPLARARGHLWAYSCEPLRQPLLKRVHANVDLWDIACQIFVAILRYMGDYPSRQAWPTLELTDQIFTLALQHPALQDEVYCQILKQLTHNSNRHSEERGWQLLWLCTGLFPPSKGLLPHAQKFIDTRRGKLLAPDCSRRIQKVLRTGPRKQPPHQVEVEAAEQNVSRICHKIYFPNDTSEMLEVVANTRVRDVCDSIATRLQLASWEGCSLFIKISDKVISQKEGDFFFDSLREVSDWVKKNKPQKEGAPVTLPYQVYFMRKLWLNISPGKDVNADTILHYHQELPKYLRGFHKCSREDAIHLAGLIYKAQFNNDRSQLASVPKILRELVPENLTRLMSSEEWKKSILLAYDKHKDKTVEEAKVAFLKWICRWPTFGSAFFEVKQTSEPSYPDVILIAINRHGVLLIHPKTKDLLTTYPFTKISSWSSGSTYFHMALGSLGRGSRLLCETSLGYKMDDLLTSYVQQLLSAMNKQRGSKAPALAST

Harmonin-a PDZ2-end = biological target: B1; test: as above
[2] = biological target: T4, Harmonin NPDZ1 (GST removed, as used in ITC) (human, UniProt Q9Y6N9-1 1-197); test: ITC; Microcal iTC200, 10 °C; 20 mM HEPES pH 7.0, 100 mM NaCl, 0.5 mM TCEP, 1 mM EGTA; single binding site model; GST removed from harmonin
T4 construct: Harmonin-a1 (USH1C), human, residues 1-197 of UniProt Q9Y6N9-1; not shown: GST, N-terminal, cleaved
T4 sequence (looked up): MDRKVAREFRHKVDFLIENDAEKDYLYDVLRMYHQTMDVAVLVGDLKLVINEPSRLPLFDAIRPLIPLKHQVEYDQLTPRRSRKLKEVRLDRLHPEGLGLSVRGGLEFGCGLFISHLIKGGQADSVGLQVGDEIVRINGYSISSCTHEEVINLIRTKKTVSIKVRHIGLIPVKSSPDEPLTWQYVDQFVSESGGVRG

Myosin 7b MF2 = biological target: T5, Myosin 7b MF2 (human, UniProt Q6PIF6 1605-2116); test: as above
T5 construct: also called M7b MF2; Myo7b MF2; source: E. coli (BL21-AI, BL21 (DE3) Rosetta or BL21-Gold (DE3)), purified (Histrap, CaptoQ, gel filtration)
T5 sequence (looked up): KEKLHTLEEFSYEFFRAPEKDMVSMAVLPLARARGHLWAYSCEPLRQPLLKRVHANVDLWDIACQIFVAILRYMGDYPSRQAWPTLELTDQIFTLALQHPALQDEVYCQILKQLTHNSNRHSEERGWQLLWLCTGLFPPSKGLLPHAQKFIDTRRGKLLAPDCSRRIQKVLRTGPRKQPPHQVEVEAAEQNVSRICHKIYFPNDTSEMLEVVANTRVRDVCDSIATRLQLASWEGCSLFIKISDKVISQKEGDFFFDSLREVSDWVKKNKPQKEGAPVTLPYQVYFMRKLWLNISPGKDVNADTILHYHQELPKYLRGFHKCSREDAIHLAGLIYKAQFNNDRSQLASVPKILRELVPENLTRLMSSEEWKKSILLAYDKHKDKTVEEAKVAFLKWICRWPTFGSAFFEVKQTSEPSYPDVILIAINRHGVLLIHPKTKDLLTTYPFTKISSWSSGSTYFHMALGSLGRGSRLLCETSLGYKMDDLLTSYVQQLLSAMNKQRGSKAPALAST

Myosin 7a MF2 = biological target: T6, Myosin 7a MF2 (human, UniProt Q13402-1 1702-2215); test: as above
T6 construct: Myosin 7a, human, C-terminal MyTH4-FERM domain (MF2), residues 1702-2215 of UniProt Q13402-1; Thrombin site of the vector replaced by an SSG linker; also called M7a MF2; Myo7a MF2; source: E. coli (BL21-AI, BL21 (DE3) Rosetta or BL21-Gold (DE3)), purified (Histrap, CaptoQ, gel filtration)
T6 sequence (looked up): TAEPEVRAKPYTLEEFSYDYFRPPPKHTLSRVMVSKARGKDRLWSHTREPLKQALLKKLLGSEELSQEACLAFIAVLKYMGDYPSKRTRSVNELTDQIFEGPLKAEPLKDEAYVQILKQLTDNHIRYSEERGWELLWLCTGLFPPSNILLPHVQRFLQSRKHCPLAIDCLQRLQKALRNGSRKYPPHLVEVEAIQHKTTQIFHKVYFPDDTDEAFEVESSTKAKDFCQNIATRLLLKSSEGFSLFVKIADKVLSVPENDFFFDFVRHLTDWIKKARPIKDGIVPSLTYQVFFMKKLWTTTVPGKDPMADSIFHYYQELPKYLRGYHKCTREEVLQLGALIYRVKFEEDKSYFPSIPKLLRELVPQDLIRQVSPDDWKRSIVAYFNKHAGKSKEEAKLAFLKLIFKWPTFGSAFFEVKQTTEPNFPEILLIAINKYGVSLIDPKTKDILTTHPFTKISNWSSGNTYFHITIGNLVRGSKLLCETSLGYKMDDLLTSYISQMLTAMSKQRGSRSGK

YFP-Myosin 7b MF2 [3] = biological target: T3, YFP-Myosin 7b MF2; test: MST; YFP-fused partner constant at 100 nM, non-fluorescent protein titrated (16 two-fold dilutions); 20 mM Hepes pH 7.0, 100 mM NaCl, 1 mM EGTA, 0.5 mM TCEP, 0.05% Tween 20; Monolith NT.115; remark: listed apart in the source

Binder: B1
Kd (YFP-FL-harmonin-ΔCter): 2000 nM
Kd (YFP-Myosin 7a MF2): 1880 nM
Kd (YFP-Myosin 7b MF2 [1]): 2790 ± 790 nM

B3: Harmonin-a PDZ3c (GST removed, as used in ITC and crystallisation) (domain or fragment, human, UniProt Q9Y6N9-1 428-552, looked up)
chain: QDFRKYEEGFDPYSMFTPEQIMGKDVRLLRIKKEGSLDLALEGGVDSPIGKVVVSAVYERGAAERHGGIVKGDEIMAINGKIVTDYTLAEAEAALQKAWNQGGDWIDLVVAVCPPKEYDDELTFF
notes: Harmonin-a1 (USH1C), human, residues 428-552 of UniProt Q9Y6N9-1; also called PDZ3c (isoA); HarA PDZ3c; not shown: GST, N-terminal, cleaved
Kd [2]: 10000 ± 3000 nM
Kd (Myosin 7b MF2): 1400 ± 600 nM
Kd (Myosin 7a MF2): 1000 nM

The next lines start with the values.

Kd (Harmonin-a PDZ2-end): 4200 nM
B2: YFP-Harmonin NPDZ1 (domain or fragment, human, UniProt Q9Y6N9-1 1-197, looked up)
chain: MDRKVAREFRHKVDFLIENDAEKDYLYDVLRMYHQTMDVAVLVGDLKLVINEPSRLPLFDAIRPLIPLKHQVEYDQLTPRRSRKLKEVRLDRLHPEGLGLSVRGGLEFGCGLFISHLIKGGQADSVGLQVGDEIVRINGYSISSCTHEEVINLIRTKKTVSIKVRHIGLIPVKSSPDEPLTWQYVDQFVSESGGVRG
notes: Harmonin-a1 (USH1C), human, residues 1-197 of UniProt Q9Y6N9-1; also called ^YFPNPDZ1; source: E. coli BL21 (DE3) Rosetta, purified (Glutathione Sepharose 4B, size-exclusion chromatography)

Kd (YFP-Myosin 7b MF2 [1]): > 100000 nM
Kd (YFP-Myosin 7b MF2 [3]): 68000 nM
B4: Harmonin-a PDZ3c F551V-F552V (domain or fragment, human, UniProt Q9Y6N9-1 428-552, looked up)
chain: QDFRKYEEGFDPYSMFTPEQIMGKDVRLLRIKKEGSLDLALEGGVDSPIGKVVVSAVYERGAAERHGGIVKGDEIMAINGKIVTDYTLAEAEAALQKAWNQGGDWIDLVVAVCPPKEYDDELTVV
notes: Harmonin-a1 (USH1C), human, residues 428-552 of UniProt Q9Y6N9-1; also called PDZ3c (isoA) F551V-F552V; source: E. coli BL21 (DE3) Rosetta, purified similarly as wild type
